The numbers were not newly measured in article PMC2744096, which cites them from elsewhere.

In the data set the target is MLL (Homo sapiens) (UniProt Q03164).

The Kd is the constant that tells how readily two partners part at equilibrium. Regarding CBP KIX (from UniProt Q92793), the Kd is 3 µM.
